± gives the standard deviation of the averaged measurements.
System: ATP
Test: switch fluorescence ratio, 500 uM ATP over buffer (Cy3 cluster intensity, sum of 5 cycles each) (fold (ratio)); higher = stronger signal-on switching upon ATP binding; sequences stand for … in TCGTCGGCAGCGTCAGATGTGTATAAGAGACAGTTTTTTTTTTTTTTTTTTTTTTTTT…TC
Details: aptamer strand: ATP DNA aptamer (quencher-CACCTGGGGGAGTATTGCGGAGGAAGG + anchor), 100 nM annealed; ATP concentration: 500 uM
Summary of the method: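 For every switch-domain sequence, the fluorescence ratio is the mean of per-cluster values, each being summed target-cycle Cy3 intensity over summed buffer-cycle Cy3 intensity. Clusters outside 100-1000 RFU were excluded. On a modified Illumina MiSeq flow-cell, the Cy3-labelled switching-strand clusters were annealed to 100 nM quencher-labelled ATP aptamer, imaged in selection buffer and then after 15 min with 500 uM ATP at 22 °C. Five such cycles were run, with NaOH stripping and re-annealing between them.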
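Further: ATP exposure 15 min at 22 °C before imaging.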

| Sequence | switch fluorescence ratio |
| --- | --- |
| CAGTGCATTG | 1.01 ± 0.023 |
| TTAGCGTGGG | 0.99 ± 0.023 |
| TACGCCGGAA | 1.33 ± 0.37 |
| GGGGCTGGGA | 0.986 ± 0.027 |
| GTAATTGCTG | 1.01 ± 0.059 |
| CCGGGTGAAG | 1.07 ± 0.063 |
| AGGGGTAGGG | 1.01 ± 0.027 |
| AATCGTTAGG | 0.969 ± 0.022 |
| TTAGTATGAC | 1.02 ± 0.042 |
| CCATTTTGTT | 0.984 ± 0.015 |
| CGGGTAAGT | 1 ± 0.022 |
| GTAAAATTGG | 0.998 ± 0.025 |
| GATTTAGCTA | 1.014 ± 0.0034 |
| ATAGTTTTCG | 1 ± 0.034 |
| TTTTTTGGG | 0.9686 ± 0.0027 |
| GGGTTTCAGT | 0.9503 ± 0.0066 |
| GAGGAGCTGG | 0.986 ± 0.051 |
| AAGCTTATAT | 0.9999 ± 0.0089 |
| CAAATGGGAT | 0.9951 ± 0.0099 |
| GGGAGAGGCG | 0.984 ± 0.013 |
| TCAAGACGCA | 1.068 ± 0.0035 |

| Sequence | switch fluorescence ratio |
| --- | --- |
| CTCAGGATGT | 1.06 ± 0.026 |
| AGGGAGTTGC | 1.03 ± 0.038 |
| AATGGCATTT | 0.989 ± 0.025 |
| TGACAGTATC | 1.08 ± 0.011 |
| ATGGGGTGGG | 0.985 ± 0.026 |
| TTTTCGATCT | 1 ± 0.013 |
| ATTCCGTATT | 1.44 ± 0.68 |
| AGGCAAACCC | 1.0669 ± 0.00051 |
| GATCGGCGCG | 0.986 ± 0.025 |
| CGGAATTCAC | 1.39 ± 0.017 |
| GCATTGTTTT | 0.96 ± 0.038 |
| TCTTACAATC | 1.1 ± 0.095 |
| ACAGGAAGGG | 1 ± 0.01 |
| AGATGACTTT | 0.98 ± 0.034 |
| GTTTTAAGGC | 1.01 ± 0.058 |
| CGGATTTTCA | 0.9999 ± 0.0067 |
| ACTGGTTTTG | 1.01 ± 0.022 |
| TTCGCGGCAC | 2.44 ± 1.3 |
| GGTTGGGGCA | 0.985 ± 0.049 |
| GCTACATGGG | 1.02 ± 0.015 |
| ATTAGCGTCA | 0.991 ± 0.018 |
